Data on five molecules can be found in paper PMC10477243, “Molecular basis of RNA-binding and autoregulation by the cancer-associated splicing factor RBM39” (Nature Communications, 2023).

For series [1], the target named is T1, RBM39 RRM2 (UniProt Q14498 250-328).
T1 sequence: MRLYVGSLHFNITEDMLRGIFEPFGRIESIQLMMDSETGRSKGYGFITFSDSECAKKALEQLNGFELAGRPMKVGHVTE
As to the kind of experiment: NMR titration; ITC: RRM2/RRM12 in 10 mM Na phosphate pH 6.8, 50 mM NaCl, 2 mM DTT; RRM1 in the same at pH 5.5; 40 C (RRM12 with ssSL3 at 35 C); NMR 200 uM protein in the same. The note with it: protein: recombinant; tags: His tag removed by thrombin.

Series [2] has as its target T1, RBM39 RRM2. Nature of the series: ITC; n=1.18; ITC: RRM2/RRM12 in 10 mM Na phosphate pH 6.8, 50 mM NaCl, 2 mM DTT; RRM1 in the same at pH 5.5; 40 C (RRM12 with ssSL3 at 35 C); NMR 200 uM protein in the same. The note with it: protein: recombinant; tags: His tag removed by thrombin. In general terms: Isothermal titration calorimetry measures the heat released or taken up as one component is titrated into another.

The target of another series is T2, RBM39 RRM2 F259A (UniProt Q14498 250-328, F259A).
T2 sequence: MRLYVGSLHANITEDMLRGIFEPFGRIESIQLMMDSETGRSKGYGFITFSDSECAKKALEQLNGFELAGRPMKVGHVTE
Nature of the series: ITC; n=1.27; ITC: RRM2/RRM12 in 10 mM Na phosphate pH 6.8, 50 mM NaCl, 2 mM DTT; RRM1 in the same at pH 5.5; 40 C (RRM12 with ssSL3 at 35 C); NMR 200 uM protein in the same. The note with it: protein: recombinant.

The target of series [3] is T3, SF3b155 ULM peptide KSRWDETP
T3 construct: ULM (UHM ligand motif) of SF3b155 (SF3B1)
T3 peptide: KSRWDETP
Nature of the series: ITC; PEAQ-ITC (Malvern); Buffer G (sodium phosphate 10 mM pH 7.2, NaCl 50 mM, TCEP 0.5 mM); protein 300 μM in the syringe, ligand (peptide) 30 μM in the cell. The note with it: both partners purified.

Some results are limits rather than exact numbers.

On to CCUCCCA (ssRNA) [mutBS1], for which the binding result in the series with RBM39 RRM2 [1] is recorded as “no binding”.

For orientation: Kd means the constant that tells how readily two partners part at equilibrium. AGCUUUG (ssRNA): the values for the Kd with RBM39 RRM2 [2] and with RBM39 RRM2 F259A were 9 ± 2 µM and 41 ± 10 µM, respectively.

In the case of CUCUUUG (ssRNA) [BS1], the binding result with RBM39 RRM2 [1] was “binds”.

B1: RBM39 RRM3 (domain or fragment)
chain: VQPLATQCFQLSNMFNPQTEEEVGWDTEIKDDVIEECNKHGGVIHIYVDKNSAQGNVYVKCPSIAAAIAAVNALHGRWFAGKMITAAYVPLPTYHNLFPDSMTATQLLVPSRR
modifications: Construct limits not printed (cited paper); 418-530 is the customary RRM3/UHM construct, covering the annotated RRM3 445-508 and the C-terminus
Usually stoichiometry N stands for a count of units in the complex or per binding partner. For B1, in series [3], binding was put at a Kd of 19 ± 5 µM, the dH is -83.7 kJ/mol and the “stoichiometry N” value worked out at 0.65.

B2: RBM39 mRRM3 (domain or fragment)
chain: VQPLATQCFQLSNMFNPQTEEEVGWDTEIKDDVIEECNKHGGVIHIYVDKNSAQGNVYVKCPSIAAAIAAVNALHGAWAAGKMITAAYVPLPTYHNLFPDSMTATQLLVPSRR
modifications: Construct limits not printed (cited paper); same conventional limits as wild-type RRM3
As to B2, in series [3], the Kd is > 100 µM.
